Consider 84 variants from the RNAGym collection of RNA variant scans (doi:10.1093/molbev/msab373).

First the molecules themselves.
B1: Azoarcus group I ribozyme (parent)
chain: GUGCCUUGCGCCGGGAAACCACGCAAGGGAUGGUGUCAAAUUCGGCGAAACCUAAGCGCCCGCCCGGGCGUAUGGCAACGCCGAGCCAAGCUUCGGCGCCUGCGCCGAUGAAGGUGUAGAGACUAGACGGCACCCACCUAAGGCAAACGCUAUGGUGAAGGCAUAGUCCAGGGAGUGGCGAAAGUCACACAAACCGG

The variants in this series derive from B1. In words: reverse-splicing fitness (ratio to wild type); higher = more active; in vitro selection; Mg2+ level not given. The essentials: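 An in vitro group I ribozyme library with randomized positions was T7-transcribed and gel-purified. In triplicate, 10 pmol RNA in EPPS pH 7.5 was reacted with 50 pmoles of a 30-nt RNA substrate for 1 h at 37 °C across several added MgCl2 levels (1–48 mM), then stopped with EDTA. Products were reverse transcribed from a substrate-complementary primer, PCR-amplified and sequenced (HiSeq 4000). Fitness is a variant's read proportion after selection over that before, normalised to wild type.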
For C82A A111U C150A C169U U176C, the reverse-splicing fitness was determined as 0.0171.
In the case of C82A A111U C150A C169U U176G it was 0.00835; in that of C82A A111U C150A C169U U176A, 0.0167.
The same measure for C82A A111U C150G C169U: 0.0101.
Consider C82A A111U C150G C169G, for which the reverse-splicing fitness was found to be 0.00756.
The same measure for C82A A111U C150G C169A: 0.00953.
In the case of C82A A111U A145U C169A it was 0.00911; in that of C82A A111U A145U C169U, 0.0125; in that of C82A A111U A145U C169G, 0.00938.
C82A A120C A145C C150G C169A U176G: the reverse-splicing fitness was 0.00632.
The same measure for C82A A120C A145C C150G C169A U176A: 0.0105; for C82A A120C A145C C150G C169A U176C: 0.00816.
The same measure for C82A A120C A145G C150A C169A U176C: 0.0248; for C82A A120C A145G C150A C169A U176A: 0.0224; for C82A A120C A145G C150A C169A U176G: 0.00876.
C82A A111U A145U C169G U176C: the reverse-splicing fitness is 0.0142.
With C82A A111U A145U C169G U176G, the reverse-splicing fitness was 0.00625.
The same measure for C82A A111U A145U C169G U176A: 0.0127; for C82A A111U C150U C169U U176C: 0.0146; for C82A A111U C150U C169U U176A: 0.0146.
In the case of C82A A111U C150U C169U U176G it was 0.00671; in that of C82A A120C A145G U176G, 0.00861.
In the case of C82A A120C A145G U176A it was 0.0426; in that of C82A A120C A145G U176C, 0.0683; in that of C82A A111U A145U C150G C169G, 0.00819.
In the case of C82A A111U A145U C150G C169U, the reverse-splicing fitness stood at 0.00971.
In the case of C82A A111U A145U C150G C169A it was 0.00877; in that of C82A A111U C150G C169U U176A, 0.00699; in that of C82A A111U C150G C169U U176C, 0.0139.
In the case of C82A A111U C150G C169U U176G it was 0.00599; in that of C82A A111U A145U C150U C169A U176C, 0.0108.
The same measure for C82A A111U A145U C150U C169A U176A: 0.0148; for C82A A111U A145U C150U C169A U176G: 0.00727.
For the variant C82A A120C A145C C150U C169U U176G, the reverse-splicing fitness turned out to be 0.00452.
The same measure for C82A A120C A145C C150U C169U U176C: 0.00988; for C82A A120C A145C C150U C169U U176A: 0.0127; for C82A A111U C150U C169G U176G: 0.00649.
The same measure for C82A A111U C150U C169G U176C: 0.0182; for C82A A111U C150U C169G U176A: 0.0151.
The same measure for C82A A120C A145U C150A C169A U176G: 0.00601; for C82A A120C A145U C150A C169A U176C: 0.0156; for C82A A120C A145U C150A C169A U176A: 0.0198.
Take C82A A111U C150A C169G: the reverse-splicing fitness was determined as 0.00884.
In the case of C82A A111U C150A C169U it was 0.0125; in that of C82A A111U C150A C169A, 0.0117; in that of C82A A120C A145C C150A C169A U176C, 0.0102.
The same measure for C82A A120C A145C C150A C169A U176G: 0.00574; for C82A A120C A145C C150A C169A U176A: 0.0195.
Take C82A A111U C169U U176C: the reverse-splicing fitness was 0.0132.
In the case of C82A A111U C169U U176A it was 0.0152; in that of C82A A111U C169U U176G, 0.00671.
In the case of C82A A111U C150U C169G it was 0.0102; in that of C82A A111U C150U C169A, 0.0102.
In the case of C82A A111U C150U C169U it was 0.0124.
Turning to C82A A120C A145U C150G C169G, the reverse-splicing fitness is 0.00692.
C82A A120C A145U C150G C169A: the reverse-splicing fitness came to 0.0101.
As to C82A A120C A145U C150G C169U, the reverse-splicing fitness amounted to 0.0114.
The same measure for C82A A120C A145C C150A C169G U176C: 0.0244.
On to C82A A120C A145C C150A C169G U176G, for which the reverse-splicing fitness worked out at 0.00625.
Take C82A A120C A145C C150A C169G U176A: the reverse-splicing fitness came to 0.032.
In the case of C82A A120C A145C C150U C169A U176G it was 0.00541; in that of C82A A120C A145C C150U C169A U176C, 0.00786; in that of C82A A120C A145C C150U C169A U176A, 0.0161.
In the case of C82A A120C A145C C169U U176C it was 0.0127.
In the case of C82A A120C A145C C169U U176G it was 0.00354.
Take C82A A120C A145C C169U U176A: the reverse-splicing fitness came out at 0.0135.
Turning to C82A A111U A145G C150G C169A U176A, the reverse-splicing fitness amounted to 0.0138.
The same measure for C82A A111U A145G C150G C169A U176C: 0.0137; for C82A A111U A145G C150G C169A U176G: 0.0091.
Turning to C82A A120C A145G C150U, the reverse-splicing fitness was 0.107.
As for C82A A120C A145G C150G, the reverse-splicing fitness stood at 0.0213.
In the case of C82A A120C A145G C150A it was 0.0245.
The same measure for C82A A120C A145G C150U U176A: 0.0309; for C82A A120C A145G C150U U176G: 0.0102; for C82A A120C A145G C150U U176C: 0.0551.
In the case of C82A A120C A145G C150U C169A U176G, the reverse-splicing fitness turned out to be 0.00774.
In the case of C82A A120C A145G C150U C169A U176A it was 0.0169; in that of C82A A120C A145G C150U C169A U176C, 0.0184.
The same measure for C82A A111U A145G C150G C169G U176A: 0.0117.
The same measure for C82A A111U A145G C150G C169G U176C: 0.0133; for C82A A111U A145G C150G C169G U176G: 0.00649.
Regarding C82A A111U C150U C169A U176C, the reverse-splicing fitness was determined as 0.015.
With C82A A111U C150U C169A U176A, the reverse-splicing fitness was 0.0158.
In the case of C82A A111U C150U C169A U176G it was 0.00786.
